From patent publication US8933202B2, “AXL antibodies” (U3 Pharma GmbH, priority 2007, dated 2015)

Legend:
Akt-Kinase = Akt-Kinase (Ser473) phosphorylation ELISA; assay type: cell-based; conditions: 400 ng/ml Gas6
Protocol: Furthermore, ELISA experiments were performed in order to investigate whether the rat anti-AXL antibodies of the invention are able to block ligand Gas6-mediated activation of Akt-Kinase. Gas6-mediated Akt-Kinase activation was detected by increased protein (Ser473) phosphorylation. In brief, on day 1. 2×10^4 cells per well were seeded in flat-bottom 96 well plates. The next day, normal growth medium was replaced by serum-reduced (DMEM, 0.5% FCS for NIH3T3-AXL cl.7 fibroblasts) or serum-free (for cancer cell lines) medium to starve cells for 36 h. […] Medium was flicked out and cells were fixed with 4% formaldehyde in PBS (pH 7.5) for 30 min at room temperature. Formaldehyde solution was removed and cells were washed twice with wash buffer (PBS, 0.1% Tween 20). […] Tetramethylbenzidine (TMB, Calbiochem) was added and monitored at 620 nm.
In order to investigate whether the rat anti-AXL antibodies of the invention and the corresponding chimeric anti-AXL antibodies of the invention were able to block ligand Gas6-mediated activation of the Akt-Kinase in NIH3T3-AXL cl.7 fibroblasts to similar extent, ELISA experiments were performed. Antibody-mediated Akt-Kinase inhibition was detected by decreased protein (Ser473) phosphorylation. […] Tetramethylbenzidine (TMB, Calbiochem) was added and monitored at 620 nm.

[1] = test system: NCI-H292 lung cancer cells; assay: Wound healing/scratch assay; assay type: cell-based, human; conditions: 10 μg/ml antibody, 24 h, compared to isotypic control antibody
Description: To examine the migration and proliferation rates of different cells and culture conditions, in vitro wound healing/scratch assays are being employed for many years. These assays generally involve growing a confluent cell monolayer first. A small area is then disrupted and a group of cells are being destroyed or displaced by scratching a line through the layer with, for example, a pipette tip. The open gap is then inspected microscopically over time as the cells move in and fill the damaged area (“healing”). In brief, 1.5×10^6 NCI-H292 lung cancer cells were seeded per well of a 12 well dish and cultured in normal growth medium (RPMI, 10% FCS). After 8 h, cells were rinsed with PBS and starved in low serum medium (RPMI, 0.5% FCS) over night for 24 h. Using a sterile 200 μl pipette tip, three separate uniform wounds per well were scratched through the confluent NCI-H292 cell monolayers. […] Cells were permitted to migrate into the area of clearing for 24 h, washed once with PBS and fixed with ice cold Methanol (100%) at −20° C. After cells were stained with crystal violet (0.5% in 20% Methanol), rinsed with water and dried over night, photos of the wounds were taken.

[2] = test system: serum-starved NIH3T3-AXL cl.7 fibroblasts; assay: Caspase-3/7 assay, Gas6-mediated anti-apoptosis; assay type: cell-based; conditions: 10 μg/ml antibody, with or without 400 ng/ml Gas6, compared to isotypic control antibody
Description: Induction of apoptosis and activation of caspases can result from a variety of stimuli including growth factor withdrawal, exposure to chemotherapeutic agents or radiation, or initiation of the Fas/Apo-1 receptor-mediated cell death process. […] In the present example we examined whether rat anti-AXL antibodies of the invention interfere with Gas6-mediated anti-apoptosis of serum-starved NIH3T3-AXL cl.7 fibroblasts, and thus induce apoptosis. Apoptosis rates were thereby determined by measurement of the cellular caspase-3/7 activity. For this purpose, NIH3T3-AXL cl.7 cells were seeded at a density of 1.5×10^3 cells per well in black clear-bottom 96 well plates (100 μl/well). The day after, normal growth medium was replaced by serum-reduced medium (DMEM, 0.5% FCS) to starve cells over night for 24 h. […] The cells were washed with PBS, covered with 60 μl of DMEM, 0% FCS, 0.01% BSA, and 10 μl of the respective antibody solution were added. After 1 h incubation at 37° C., 10 μl of DMEM, 0% FCS, 0.01% BSA with or without 3.2 μg/ml mouse Gas6 (R&D Systems) were added (the final concentrations of antibody and Gas6 were 10 μg/ml and 400 ng/ml, respectively), and cells were incubated at 37° C. for another 5 h. […] Using a Victor plate reader (Perkin Elmer), the fluorescence of each well was measured at an excitation wavelength of 485 nm and an emission wavelength of 530 nm.

B1: 11B7: antagonistic rat anti-AXL monoclonal antibody, rat IgG1 (antibody, V domains shown)
VL: DIQMTQAPSSLPASLGDRVTITCRASQDIGNYLRWFQQKPGKSPRLMISGATNLAAGVPSRFSGSRSGSDYSLTISSLESEDMADYYCLQSKESPWTFGGGTKLELK
VH: EVQLQESGPGLVKPSQSLSLTCSVTGYSITSNYWGWIRKFPGDKMEWMGYITYSGSTSYNPSLKSRISITRDTSKNQFFLQLNSVTSEDTATYYCAITTFYYWGQGVMVTVSS
ligand-mediated Akt-Kinase activation, rat versus chimeric antibody (Akt-Kinase; 50 ng/ml to 1 μg/ml (11B7, ch11B7) or to 10 μg/ml (11D5, ch11D5), NIH3T3-AXL cl.7): able to inhibit ligand-mediated Akt-Kinase activation to similar extent
ligand-mediated Akt-Kinase activation (phosphorylation) (Akt-Kinase; 10 μg/ml antibody, NIH3T3-AXL cl.7 fibroblasts and CaLa-1 lung cancer cells): able to block or reduce ligand-mediated Akt-Kinase activation
re-population of the cleared area (wound closure) [1]: reduced the re-population of the cleared area
anti-apoptosis (caspase-3/7 activity) [2]: reduced Gas6-mediated anti-apoptosis
